Experimental findings from article PMC11077763 are described below.

pKd: −log10 of the molar value.

This experiment concerns the target murine TRIM66 PHD-Bromodomain (a.a. 996-1,185) (mouse) (UniProt Q924W6). As to the kind of experiment: ITC; 800 uM to 2.4 mM peptide in the syringe injected into 30-50 uM mTRIM66 PHD-Bromodomain in the cell; 25°C; 20 mM Tris pH 7.5, 100 mM NaCl; single-site binding model; triplicate. (In general: Isothermal titration calorimetry measures the heat released or taken up as one component is titrated into another.)
UniProt Q924W6, sequence (Q924W6 996-1185): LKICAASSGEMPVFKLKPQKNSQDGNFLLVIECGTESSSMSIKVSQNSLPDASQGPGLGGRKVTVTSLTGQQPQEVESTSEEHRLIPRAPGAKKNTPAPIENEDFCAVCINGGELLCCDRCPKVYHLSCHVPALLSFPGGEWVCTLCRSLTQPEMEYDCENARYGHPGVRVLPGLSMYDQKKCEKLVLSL

“H3 (1-30) K9me3+K18Ac (from UniProt P68431 2-31) (peptide)” gave a pKd of 5.89.

On to “H3 (1-30) K4me3+K18Ac (from UniProt P68431 2-31) (peptide)”, for which the fold decrease of the binding affinity against the unmodified H3 tail was 7.1 fold and the fold increase of the binding affinity against H3K4me3 alone came out at 2.4 fold.

With “H3 (1-30) K4me3 (from UniProt P68431 2-31) (peptide)”, the pKd is 4.23.

Regarding “H3 (1-30) unmodified (from UniProt P68431 2-31) (peptide)”, the negative-log Kd (pKd) is 5.47.

Broadly, the pKd is the negative decadic logarithm of the Kd, by convention in mol/L. Low values mean a large Kd, high ones a small Kd.
